The results in this text go back to US20240026344A1.

The target of the assay is AAV8 capsids (adeno-associated virus 8 (AAV8)). Put plainly: BLI (ForteBio), control ligand on sensor, AAV8 capsids 5x10^11 particles/mL, response after 4000 s.

In turn, “Non-binding ligand (control) (designed binder)” registered a Response of 0.03.
